Reference: patent US12534531 (MacroGenics, dated 2026)
Substitutions are numbered along the chain they refer to.

How the values were obtained:
[1] = biological target: T1, human PD-1 expressed on the surface of cells (NSO cells expressing human PD-1; MNFAT-luc2/PD-1 Jurkat cells) (human, UniProt Q15116 21-288); assay: FACS saturation binding on NSO cells expressing human PD-1, goat anti-human-APC, MFI, 1:4 dilutions
T1 construct: also called cell surface PD-1; PDCD1 transfected NSO cells expressing PD-1

[2] = biological target: T1, human PD-1 expressed on the surface of …; assay: FACS blocking on NSO cells expressing human PD-1, 1:4 dilutions, MFI; blocked ligand: biotinylated sPD-L1, streptavidin-PE
[3] = biological target: T1, human PD-1 expressed on the surface of …; assay: FACS saturation binding to NSO cells expressing PD-1; SM; SD 0.3958
[4] = biological target: T1, human PD-1 expressed on the surface of …; assay: FACS: inhibition of sPD-L2 binding to PD-1 on NSO cells; SM; SD 0.2893
[5] = biological target: T2, soluble human PD-1 (the extracellular domain of human PD-1 fused to a His tag) (human, UniProt Q15116 25-170); assay: Biacore, mAb captured on F(ab)2 goat anti-human Fc, analyte shPD-1 His
T2 construct: also called shPD-1 His; shPD-1-His; not shown: His tag

[6] = biological target: soluble cynomolgus monkey PD-1 (scyno PD-1 hFc) cleaved to remove Fc portion (cynomolgus monkey, UniProt B0LAJ3 25-170); assay: Biacore, mAb captured on F(ab)2 goat anti-human Fc, analyte scyno PD-1 hFc cleaved of Fc
[7] = biological target: T1, human PD-1 expressed on the surface of …; assay: FACS blocking on NSO cells expressing human PD-1, 1:4 dilutions, MFI; blocked ligand: biotinylated sPD-L2, streptavidin-PE
[8] = biological target: T1, human PD-1 expressed on the surface of …; assay: FACS: inhibition of sPD-L1 binding to PD-1 on NSO cells; SM; SD 0.2337
[9] = biological target: T1, human PD-1 expressed on the surface of …; assay: FACS: inhibition of sPD-L2 binding to PD-1 on NSO cells; SM; SD 0.2563
[10] = biological target: T3, PD-1 on the surface of CD4+ and CD8+ T cells of cynomolgus monkeys (cynomolgus monkey, UniProt B0LAJ3 25-288); assay: flow cytometry competition with labeled hPD-1 mAb 7 (1.2) IgG4 (P) on blood of cynomolgus monkeys given 10 mg/kg
T3 construct: In vivo occupancy read by flow cytometry; also called PD-1+/CD4+ and PD-1+/CD8+ cells

[11] = biological target: T1, human PD-1 expressed on the surface of …; assay: FACS: inhibition of sPD-L1 binding to PD-1 on NSO cells; SM; SD 0.1668
[12] = biological target: T1, human PD-1 expressed on the surface of …; assay: FACS saturation binding to NSO cells expressing PD-1; SM; SD 0.8112
[13] = biological target: T4, biotinylated-soluble human LAG-3-Fc fusion protein (human, UniProt P18627 23-450, biotinylated (site not stated)); assay: FACS: inhibition of shLAG-3-Fc binding to MHC II on Daudi cells (column head prints EC50); SM; SD 1.6465
T4 construct: whole entry named; also called shLAG-3; shLAG-3-Fc; not shown: Fc
T4 sequence: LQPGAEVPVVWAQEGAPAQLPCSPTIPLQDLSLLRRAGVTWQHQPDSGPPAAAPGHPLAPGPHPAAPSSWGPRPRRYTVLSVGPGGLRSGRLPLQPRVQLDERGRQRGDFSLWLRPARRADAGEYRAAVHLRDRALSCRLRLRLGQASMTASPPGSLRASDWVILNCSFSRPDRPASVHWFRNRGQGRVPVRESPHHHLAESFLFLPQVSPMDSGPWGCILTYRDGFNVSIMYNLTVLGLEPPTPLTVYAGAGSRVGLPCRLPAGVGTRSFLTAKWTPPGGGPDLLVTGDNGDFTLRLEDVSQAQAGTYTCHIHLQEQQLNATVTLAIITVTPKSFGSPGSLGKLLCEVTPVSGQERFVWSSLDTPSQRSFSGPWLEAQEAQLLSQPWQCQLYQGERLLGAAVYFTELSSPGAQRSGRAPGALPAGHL

[14] = biological target: T1, human PD-1 expressed on the surface of …; assay: FACS: inhibition of sPD-L1 binding to PD-1 on NSO cells; SM; SD 0.1485
[15] = biological target: T1, human PD-1 expressed on the surface of …; assay: FACS: inhibition of sPD-L2 binding to PD-1 on NSO cells; SM; SD 0.4285
[16] = biological target: T5, human LAG-3 expressed on NSO cells (human, UniProt P18627 29-525); assay: FACS saturation binding to NSO cells expressing LAG-3; SM; SD 0.2231
T5 sequence: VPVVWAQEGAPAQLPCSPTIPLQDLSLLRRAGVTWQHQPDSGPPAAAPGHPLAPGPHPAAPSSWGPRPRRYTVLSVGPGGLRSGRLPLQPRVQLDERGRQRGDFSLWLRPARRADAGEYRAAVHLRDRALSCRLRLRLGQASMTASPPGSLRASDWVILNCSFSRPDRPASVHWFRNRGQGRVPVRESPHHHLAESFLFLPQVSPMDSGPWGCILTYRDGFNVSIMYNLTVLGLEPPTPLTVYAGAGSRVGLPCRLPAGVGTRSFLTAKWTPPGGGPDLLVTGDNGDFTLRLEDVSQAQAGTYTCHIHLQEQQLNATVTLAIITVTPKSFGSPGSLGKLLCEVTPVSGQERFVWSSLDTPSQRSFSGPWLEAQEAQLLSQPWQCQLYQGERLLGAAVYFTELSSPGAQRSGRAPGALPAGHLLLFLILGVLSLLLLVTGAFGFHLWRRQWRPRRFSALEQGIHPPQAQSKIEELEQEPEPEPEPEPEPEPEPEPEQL

[17] = biological target: T1, human PD-1 expressed on the surface of …; assay: FACS saturation binding to NSO cells expressing PD-1; SM; SD 0.4324
[18] = biological target: T1, human PD-1 expressed on the surface of …; assay: FACS saturation binding to NSO cells expressing PD-1; single experiment
[19] = biological target: T5, human LAG-3 expressed on NSO cells; assay: FACS saturation binding to NSO cells expressing LAG-3; single experiment
[20] = biological target: T1, human PD-1 expressed on the surface of …; assay: FACS: inhibition of sPD-L2 binding to PD-1 on NSO cells; SM; SD 0.3154
[21] = biological target: T1, human PD-1 expressed on the surface of …; assay: FACS: inhibition of sPD-L1 binding to PD-1 on NSO cells; SM; SD 0.0007
[22] = biological target: T4, biotinylated-soluble human LAG-3-Fc …; assay: FACS: inhibition of shLAG-3-Fc binding to MHC II on Daudi cells (column head prints EC50); SM; SD 0.1104

B1: hPD-1 mAb 7 (1.2) IgG1 (AA) (antibody)
heavy: not shown
light: EIVLTQSPATLSLSPGERATLSCRASESVDNYGMSFMNWFQQKPGQPPKLLIHAASNQGSGVPSRFSGSGSGTDFTLTISSLEPEDFAVYFCQQSKEVPYTFGGGTKVEIKRTVAAPSVFIFPPSDEQLKSGTASVVCLLNNFYPREAKVQWKVDNALQSGNSQESVTEQDSKDSTYSLSSTLTLSKADYEKHKVYACEVTHQGLSSPVTKSFNRGEC
notes: also called h1PD-1 mAb 7(1.2) IgG1 (AA)
Question: Which results are given for B1?
Answer: EC50 (read off the curve) [1]: ~0.08 µg/mL; IC50 (read off the curve) [2]: ~0.01 ug/test; EC50 [3]: 1.09 µM; IC50 [4]: 0.977 µM; Kd [5]: 0.0015 µM; Kd [6]: 0.0049 µM; IC50 (read off the curve) [7]: ~0.02 ug/test; IC50 [8]: 0.732 µM

B2: hPD-1 mAb 7 (1.2) IgG4 (P) (antibody)
heavy: not shown
light: B1 light
notes: also called MGD012
Question: How did the “EC50 (read off the curve)” value [1] turn out when B2 was run?
Answer: ~0.1 µg/mL

Question: And the IC50 [9]?
Answer: 1.04 µM

Question: What about the “IC50 (read off the curve)” value [2] of the same binder?
Answer: ~0.01 ug/test

Question: And the “PD-1 binding on CD4+ and CD8+ T cells (% bound, in vivo)” value [10]?
Answer: ≥ 80%

Question: And the IC50 [11]?
Answer: 0.519 µM

Question: What about the Kd [5] of the same binder?
Answer: 0.0015 µM

Question: What about the EC50 [12] of the same binder?
Answer: 1.21 µM

Question: And the Kd [6]?
Answer: 0.0046 µM

Question: And the “IC50 (read off the curve)” value [7]?
Answer: ~0.02 ug/test

B3: DART A (bispecific antibody, human IgG4 S228P)
chain 1: DIVMTQTPLSLSVTPGQPASISCKSSQSLLHSDAKTYLNWLLQKPGQPPERLIYLVSELDSGVPDRFSGSGSGTDFTLKISRVEAEDVGVYYCWQGTHFPYTFGGGTKVEIKGGGSGGGGQVQLVQSGAEVKKPGASVKVSCKASGYSFTSYWMNWVRQAPGQGLEWIGVIHPSDSETWLDQKFKDRVTITVDKSTSTAYMELSSLRSEDTAVYYCAREHYGTSPFAYWGQGTLVTVSSGGCGGGEVAACEKEVAALEKEVAALEKEVAALEKESKYGPPCPPCPAPEFLGGPSVFLFPPKPKDTLYITREPEVTCVVVDVSQEDPEVQFNWYVDGVEVHNAKTKPREEQFNSTYRVVSVLTVLHQDWLNGKEYKCKVSNKGLPSSIEKTISKAKGQPREPQVYTLPPSQEEMTKNQVSLTCLVKGFYPSDIAVEWESNGQPENNYKTTPPVLDSDGSFFLYSRLTVDKSRWQEGNVFSCSVMHEALHNHYTQKSLSLSLG
chain 2: EIVLTQSPATLSLSPGERATLSCRASESVDNYGMSFMNWFQQKPGQPPKLLIHAASNQGSGVPSRFSGSGSGTDFTLTISSLEPEDFAVYFCQQSKEVPYTFGGGTKVEIKGGGSGGGGQVQLVQSGAEVKKPGASVKVSCKASGYTFTNYGMNWVRQAPGQGLEWMGWINTYTGESTYADDFEGRFVFSMDTSASTAYLQISSLKAEDTAVYYCARESLYDYYSMDYWGQGTTVTVSSGGCGGGKVAACKEKVAALKEKVAALKEKVAALKE
Question: Which IC50 [13] does the source give for B3 here?
Answer: 1.38 µM

Question: And the IC50 [14]?
Answer: 0.965 µM

Question: And the IC50 [15]?
Answer: 1.63 µM

Question: And the EC50 [16]?
Answer: 0.84 µM

Question: And the EC50 [17]?
Answer: 1.93 µM

B4: DART B (bispecific antibody, human IgG4 S228P)
chain 1: B3 chain 1 with A34G
chain 2: B3 chain 2
Question: How did the EC50 [18] turn out when B4 was run?
Answer: 1.76 µM

Question: And the EC90 [18]?
Answer: 12.3 µM

Question: And the EC50 [19]?
Answer: 1.07 µM

Question: And the IC50 [20]?
Answer: 2.12 µM

Question: And the IC50 [21]?
Answer: 1.15 µM

Question: What about the IC50 [22] of the same binder?
Answer: 0.408 µM
